The target of assay [1] is T1, plasmin (human, UniProt P00747).
T1 chain: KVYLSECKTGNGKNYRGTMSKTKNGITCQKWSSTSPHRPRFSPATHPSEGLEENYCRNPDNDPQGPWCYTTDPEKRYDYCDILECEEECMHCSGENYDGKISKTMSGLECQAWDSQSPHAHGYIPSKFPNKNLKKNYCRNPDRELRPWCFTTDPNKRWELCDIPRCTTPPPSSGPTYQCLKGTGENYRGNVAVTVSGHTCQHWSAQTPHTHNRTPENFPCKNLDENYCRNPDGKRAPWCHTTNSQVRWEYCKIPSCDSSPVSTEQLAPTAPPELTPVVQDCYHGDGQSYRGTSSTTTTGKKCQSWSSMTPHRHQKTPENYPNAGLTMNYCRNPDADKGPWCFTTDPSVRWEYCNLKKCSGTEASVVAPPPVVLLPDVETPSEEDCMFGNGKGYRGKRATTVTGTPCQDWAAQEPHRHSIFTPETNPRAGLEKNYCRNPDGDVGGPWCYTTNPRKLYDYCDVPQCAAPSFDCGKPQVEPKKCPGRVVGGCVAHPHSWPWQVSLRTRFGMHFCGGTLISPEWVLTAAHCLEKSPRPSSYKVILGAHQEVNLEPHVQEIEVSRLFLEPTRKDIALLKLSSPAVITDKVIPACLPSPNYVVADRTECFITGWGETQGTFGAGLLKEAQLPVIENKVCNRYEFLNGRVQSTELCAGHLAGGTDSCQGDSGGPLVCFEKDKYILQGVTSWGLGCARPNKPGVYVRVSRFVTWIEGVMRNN

Assay [2] has as its target T1, plasmin.
Assay [3] addresses T1, plasmin.
Assay [4] concerns the target T1, plasmin.
Assay [5] has as its target T1, plasmin.

Substitutions are numbered along the chain they refer to. Names may count otherwise. Like-named read-outs stand apart in the source and are kept apart here.

B1: KD1 wild-type (protein)
chain: DAAQEPTGNNAEICLLPLDYGPCRALLLRYYYDRYTQSCRQFLYGGCEGNANNFYTWEACDDACWRIEKVPKV
Usually Ki stands for a measure of affinity in units of concentration, obtained from inhibition or displacement. Regarding B1, the Ki in assay [1] worked out at 6.4 nM; in assay [2], 9.7 nM; in assay [3], 7.5 nM; in assay [4], 5.3 nM.

B2: KD1 R24K/L26R (protein)
chain: B1 chain with R24K, L26R
Turning to B2, the Ki worked out at 1.25 nM in assay [1]; 1.06 nM in assay [2]; 1.5 nM in assay [3]; 2.2 nM in assay [5]; 0.625 nM in assay [4].

B3: KD1 R24K (protein)
chain: B1 chain with R24K
Turning to B3, the inhibition constant (Ki) in assay [1] was 1.02 nM; in assay [2], 1.33 nM; in assay [3], 4.6 nM; in assay [4] it was 1.1 nM.

The values above are taken from patent publication US20080026998 (published 2008).
